The record followed here is US20220119825A1, “SCALABLE PEPTIDE-GPCR INT[…] SYSTEMS” (THE TRUSTEES OF COLUMBIA UNIVERSITY IN THE CITY OF NEW YORK, priority 2019, published 2022).

What all share (experiment): cell-based or functional assay
Assay [1] deals with T1, Sca.Ste2, Ste2-like mating GPCR, code Sca (Saccharomyces castellii (Table 3 prints …)).
T1 chain: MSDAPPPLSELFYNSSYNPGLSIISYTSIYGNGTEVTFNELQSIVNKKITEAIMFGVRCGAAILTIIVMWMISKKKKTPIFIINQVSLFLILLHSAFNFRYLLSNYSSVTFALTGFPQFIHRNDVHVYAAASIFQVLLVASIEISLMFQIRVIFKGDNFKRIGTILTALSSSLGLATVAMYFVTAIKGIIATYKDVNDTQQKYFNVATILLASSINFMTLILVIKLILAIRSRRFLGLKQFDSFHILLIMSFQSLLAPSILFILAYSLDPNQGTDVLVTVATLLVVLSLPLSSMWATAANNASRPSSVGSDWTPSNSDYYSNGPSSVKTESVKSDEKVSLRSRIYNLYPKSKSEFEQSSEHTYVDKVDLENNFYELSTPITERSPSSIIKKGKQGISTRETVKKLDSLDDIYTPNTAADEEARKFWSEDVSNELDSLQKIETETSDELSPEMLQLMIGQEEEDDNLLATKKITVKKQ

In assay [2] the target is T2, Zb.Ste2, Ste2-like mating GPCR of Zygosaccharomyces bailii (Zygosaccharomyces bailii).
T2 chain: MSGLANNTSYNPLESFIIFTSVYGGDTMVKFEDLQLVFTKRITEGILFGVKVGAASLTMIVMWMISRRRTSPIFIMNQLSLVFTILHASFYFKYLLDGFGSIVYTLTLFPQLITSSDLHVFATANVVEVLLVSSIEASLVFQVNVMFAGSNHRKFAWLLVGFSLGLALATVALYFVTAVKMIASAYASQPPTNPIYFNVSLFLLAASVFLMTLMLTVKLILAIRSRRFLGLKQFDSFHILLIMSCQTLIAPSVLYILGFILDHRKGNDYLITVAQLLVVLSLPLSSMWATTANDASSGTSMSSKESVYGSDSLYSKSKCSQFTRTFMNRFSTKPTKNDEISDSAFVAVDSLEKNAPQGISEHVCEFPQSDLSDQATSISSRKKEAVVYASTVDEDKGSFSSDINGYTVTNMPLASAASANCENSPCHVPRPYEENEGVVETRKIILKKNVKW

Assay [3] deals with T3, Vp1.Ste2, Ste2-like mating GPCR of Vanderwaltozyma polyspora1 (Vanderwaltozyma polyspora).
T3 chain: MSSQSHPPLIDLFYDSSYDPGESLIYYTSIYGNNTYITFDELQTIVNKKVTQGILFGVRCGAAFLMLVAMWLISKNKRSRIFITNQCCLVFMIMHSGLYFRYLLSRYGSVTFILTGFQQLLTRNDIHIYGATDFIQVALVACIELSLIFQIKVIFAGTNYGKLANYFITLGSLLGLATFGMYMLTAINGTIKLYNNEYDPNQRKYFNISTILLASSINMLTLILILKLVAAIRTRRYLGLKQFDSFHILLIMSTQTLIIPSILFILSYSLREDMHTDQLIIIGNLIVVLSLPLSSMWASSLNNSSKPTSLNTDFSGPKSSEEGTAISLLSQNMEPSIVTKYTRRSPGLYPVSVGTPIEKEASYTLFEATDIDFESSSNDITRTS

Assay [4] deals with T4, Ss.Ste2, Ste2-like mating GPCR of Scheffersomyces stipitis (Scheffersomyces stipitis).
T4 chain: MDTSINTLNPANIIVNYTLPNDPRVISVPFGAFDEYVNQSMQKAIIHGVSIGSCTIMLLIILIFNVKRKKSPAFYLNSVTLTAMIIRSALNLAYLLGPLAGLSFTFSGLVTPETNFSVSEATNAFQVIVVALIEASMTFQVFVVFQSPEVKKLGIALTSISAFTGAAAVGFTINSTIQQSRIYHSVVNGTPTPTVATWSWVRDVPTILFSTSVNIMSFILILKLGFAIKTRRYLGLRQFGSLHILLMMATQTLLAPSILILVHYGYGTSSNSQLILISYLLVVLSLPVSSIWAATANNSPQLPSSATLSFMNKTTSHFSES

In assay [5] the target is T5, Sp.Ste2, Ste2-like mating GPCR of Schizosaccharomyces pombe (Schizosaccharomyces pombe, UniProt Q00619 1-348).
T5 sequence: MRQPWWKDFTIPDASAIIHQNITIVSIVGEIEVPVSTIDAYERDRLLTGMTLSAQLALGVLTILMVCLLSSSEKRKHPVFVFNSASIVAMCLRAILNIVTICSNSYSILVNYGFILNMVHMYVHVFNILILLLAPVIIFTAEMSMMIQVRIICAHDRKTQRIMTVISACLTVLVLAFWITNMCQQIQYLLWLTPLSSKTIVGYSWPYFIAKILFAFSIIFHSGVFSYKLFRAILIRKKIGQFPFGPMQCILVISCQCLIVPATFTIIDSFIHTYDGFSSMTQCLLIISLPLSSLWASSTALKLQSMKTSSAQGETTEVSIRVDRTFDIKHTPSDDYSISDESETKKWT

Assay [6] addresses T6, Sj.Ste2, Ste2-like mating GPCR of Schizosaccharomyces japonicus (Schizosaccharomyces japonicus).
T6 chain: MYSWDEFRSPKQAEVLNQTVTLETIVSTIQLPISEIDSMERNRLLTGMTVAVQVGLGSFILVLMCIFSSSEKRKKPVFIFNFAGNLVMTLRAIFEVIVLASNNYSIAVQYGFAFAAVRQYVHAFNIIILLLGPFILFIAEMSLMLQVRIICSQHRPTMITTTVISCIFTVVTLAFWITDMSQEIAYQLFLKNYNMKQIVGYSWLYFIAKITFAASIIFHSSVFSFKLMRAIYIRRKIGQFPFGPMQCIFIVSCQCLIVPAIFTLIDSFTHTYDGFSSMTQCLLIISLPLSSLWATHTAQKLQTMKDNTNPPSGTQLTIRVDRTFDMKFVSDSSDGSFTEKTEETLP

Assay [7] deals with T7, So.Ste2, Ste2-like mating GPCR of Schizosaccharomyces octosporus (Schizosaccharomyces octosporus).
T7 chain: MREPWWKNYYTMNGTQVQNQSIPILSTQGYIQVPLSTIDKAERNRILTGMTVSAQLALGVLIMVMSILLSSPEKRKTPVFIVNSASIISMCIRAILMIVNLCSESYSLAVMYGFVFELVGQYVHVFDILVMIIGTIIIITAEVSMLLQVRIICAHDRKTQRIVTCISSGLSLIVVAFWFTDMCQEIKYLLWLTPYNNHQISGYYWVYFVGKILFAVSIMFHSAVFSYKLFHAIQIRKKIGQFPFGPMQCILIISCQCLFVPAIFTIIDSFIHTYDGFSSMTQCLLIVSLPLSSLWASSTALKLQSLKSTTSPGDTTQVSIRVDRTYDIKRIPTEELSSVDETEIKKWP

In assay [8] the target is T8, Vp2.Ste2, Ste2-like mating GPCR of Vanderwaltozyma polyspora2 (Vanderwaltozyma polyspora).
T8 chain: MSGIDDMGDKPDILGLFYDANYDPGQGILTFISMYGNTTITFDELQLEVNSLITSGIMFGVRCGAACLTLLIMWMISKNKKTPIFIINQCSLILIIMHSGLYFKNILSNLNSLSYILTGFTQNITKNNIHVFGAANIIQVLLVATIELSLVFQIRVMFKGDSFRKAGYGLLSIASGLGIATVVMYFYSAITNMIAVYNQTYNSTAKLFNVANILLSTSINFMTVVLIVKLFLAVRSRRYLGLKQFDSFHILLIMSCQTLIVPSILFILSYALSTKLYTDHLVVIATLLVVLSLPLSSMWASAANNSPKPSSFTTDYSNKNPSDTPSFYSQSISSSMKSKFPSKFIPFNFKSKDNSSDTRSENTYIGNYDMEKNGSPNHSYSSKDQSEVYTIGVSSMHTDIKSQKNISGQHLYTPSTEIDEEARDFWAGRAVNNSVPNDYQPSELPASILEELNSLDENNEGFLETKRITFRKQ

The target of assay [9] is T9, Bm.Ste2, Ste2-like mating GPCR of Baudoinia compniacensis (Baudoinia compniacensis).
T9 chain: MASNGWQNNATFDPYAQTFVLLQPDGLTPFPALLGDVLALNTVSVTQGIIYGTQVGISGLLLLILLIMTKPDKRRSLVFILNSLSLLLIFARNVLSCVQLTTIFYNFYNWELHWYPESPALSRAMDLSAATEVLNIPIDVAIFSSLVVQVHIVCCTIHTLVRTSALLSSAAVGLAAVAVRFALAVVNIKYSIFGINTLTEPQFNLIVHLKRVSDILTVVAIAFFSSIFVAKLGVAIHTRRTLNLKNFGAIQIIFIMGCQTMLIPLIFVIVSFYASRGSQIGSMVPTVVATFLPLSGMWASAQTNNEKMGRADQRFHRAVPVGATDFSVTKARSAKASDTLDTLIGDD

For NWHWLRLDPGQPLY [Sca peptide ligand #1 NWHWLRLDPGQPLY], in [1], the “Bttm (FUS1p-RFP reporter)” value was 24.3 fluorescence/A600 (not printed), the “EC50 (FUS1p-RFP reporter)” value was -8.1 log10 M (not printed), the “Fold Change (FUS1p-RFP reporter)” value was found to be 6.4 fold and the “Span (FUS1p-RFP reporter)” value is 131 fluorescence/A600 (not printed). The “Top (FUS1p-RFP reporter)” value in assay [1] is 155 fluorescence/A600 (not printed).
Consider HLVRLSPGAAMF [Zb peptide ligand #1 HLVRLSPGAAMF], for which, in assay [2], the “Bttm (FUS1p-RFP reporter)” value was 39.1 fluorescence/A600 (not printed), the “EC50 (FUS1p-RFP reporter)” value was -5.8 log10 M (not printed), the “Fold Change (FUS1p-RFP reporter)” value was 7.5 fold and the “Span (FUS1p-RFP reporter)” value is 253 fluorescence/A600 (not printed). The “Top (FUS1p-RFP reporter)” value in assay [2] is 292 fluorescence/A600 (not printed).
For the molecule WHWLELDNGQPIY [Vp1 peptide ligand #1 WHWLELDNGQPIY], in assay [3], the “Bttm (FUS1p-RFP reporter)” value was 28.8 fluorescence/A600 (not printed), the “EC50 (FUS1p-RFP reporter)” value is -8.6 log10 M (not printed), the “Fold Change (FUS1p-RFP reporter)” value is 8.4 fold and the “Span (FUS1p-RFP reporter)” value is 214 fluorescence/A600 (not printed). Besides, the “Top (FUS1p-RFP reporter)” value in assay [3] was 243 fluorescence/A600 (not printed).
With WHWTSYGVFEPG [Ss peptide ligand #1 WHWTSYGVFEPG], in assay [4], the “Bttm (FUS1p-RFP reporter)” value was 23 fluorescence/A600 (not printed), the “EC50 (FUS1p-RFP reporter)” value is -7.9 log10 M (not printed), the “Fold Change (FUS1p-RFP reporter)” value was 13.8 fold and the “Span (FUS1p-RFP reporter)” value is 295 fluorescence/A600 (not printed). Further, the “Top (FUS1p-RFP reporter)” value in assay [4] is 318 fluorescence/A600 (not printed).
Regarding TYADFLRAYQSWNTFVNPDRPNL [Sp peptide ligand #1 TYADFLRAYQSWNTFVNPDRPNL], in assay [5], the “Bttm (FUS1p-RFP reporter)” value was 29.6 fluorescence/A600 (not printed), the “EC50 (FUS1p-RFP reporter)” value was -6.2 log10 M (not printed), the “Fold Change (FUS1p-RFP reporter)” value was determined as 7.6 fold and the “Span (FUS1p-RFP reporter)” value was 195 fluorescence/A600 (not printed). In addition, the “Top (FUS1p-RFP reporter)” value in [5] is 224 fluorescence/A600 (not printed).
On to VSDRVKQMLSHWWNFRNPDTANL [Sj peptide ligand #1 VSDRVKQMLSHWWNFRNPDTANL], for which, in assay [6], the “Bttm (FUS1p-RFP reporter)” value was 21.2 fluorescence/A600 (not printed), the “EC50 (FUS1p-RFP reporter)” value is -7.8 log10 M (not printed), the “Fold Change (FUS1p-RFP reporter)” value was found to be 14.7 fold and the “Span (FUS1p-RFP reporter)” value was 290 fluorescence/A600 (not printed). Further, the “Top (FUS1p-RFP reporter)” value in assay [6] was 311 fluorescence/A600 (not printed).
With TYEDFLRVYKNWWSFQNPDRPDL [So peptide ligand #1 TYEDFLRVYKNWWSFQNPDRPDL], in assay [7], the “Bttm (FUS1p-RFP reporter)” value is 23.7 fluorescence/A600 (not printed), the “EC50 (FUS1p-RFP reporter)” value is -7.8 log10 M (not printed), the “Fold Change (FUS1p-RFP reporter)” value is 11.1 fold and the “Span (FUS1p-RFP reporter)” value is 240 fluorescence/A600 (not printed). In addition, the “Top (FUS1p-RFP reporter)” value in assay [7] was 263 fluorescence/A600 (not printed).
Consider WHWLRLRYGEPIY [Vp2 peptide ligand #1 WHWLRLRYGEPIY], for which, in [8], the “Bttm (FUS1p-RFP reporter)” value was 28 fluorescence/A600 (not printed), the “EC50 (FUS1p-RFP reporter)” value was -7.7 log10 M (not printed), the “Fold Change (FUS1p-RFP reporter)” value turned out to be 7.7 fold and the “Span (FUS1p-RFP reporter)” value was 187 fluorescence/A600 (not printed). Moreover, the “Top (FUS1p-RFP reporter)” value in assay [8] was 215 fluorescence/A600 (not printed).
In the case of GWIGRCGVPGSSC [Bm peptide ligand #1 GWIGRCGVPGSSC], in assay [9], the “Bttm (FUS1p-RFP reporter)” value was 30.3 fluorescence/A600 (not printed), the “EC50 (FUS1p-RFP reporter)” value was -6.7 log10 M (not printed), the “Fold Change (FUS1p-RFP reporter)” value came out at 5.2 fold and the “Span (FUS1p-RFP reporter)” value was 128 fluorescence/A600 (not printed). In addition, the “Top (FUS1p-RFP reporter)” value in assay [9] was 159 fluorescence/A600 (not printed).
